From US20240002522A1 (INSERM INSTITUT NATIONAL DE LA SANTE ET DE LA RECHERCHE …, published 2024)

Target: T1, human CD25 (human, UniProt P01589 22-272)
T1 construct: In the functional assays it was native on T cells or SUDHL-1 cells; also called huCD25; hCD25
T1 sequence: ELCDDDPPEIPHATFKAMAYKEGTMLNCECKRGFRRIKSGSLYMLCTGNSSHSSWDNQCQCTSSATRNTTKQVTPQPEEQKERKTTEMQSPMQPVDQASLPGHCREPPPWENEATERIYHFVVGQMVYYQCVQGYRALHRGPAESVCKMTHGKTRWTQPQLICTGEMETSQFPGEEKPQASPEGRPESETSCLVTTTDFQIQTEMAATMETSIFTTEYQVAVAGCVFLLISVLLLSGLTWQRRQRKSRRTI
Assay: flow cytometry on HEK293 cells transiently transfected with huCD25; 3-fold dilutions from 500 nM; detection with anti-human IgG (Fc specific) FITC

B1: B01 (antibody, V domains shown)
VH: QVQLVESGGGVVQPGRSLRLSCAASGFTFSNHAMAWVRQAPGKGLEWVAVISYDGSNKYYADSVKGRFTISRDNAKSTLYLQMNSLRAEDTAVYYCTTGLNSGYDWGQGTLVTVSS
VL: DIQMTQSPSSLSASVGDRVTITCRASQNISSFLNWYQQKPGEAPRRLIYGTNSLQSGVPSRFSGSGSGTDYTLTISSLQPEDFATYYCQQYNSWPWTFGQGTKLEIK
notes: detected with anti-human IgG (Fc specific); also called anti-CD25 antibody B01
B1: binds.

B2: G09 (antibody, V domains shown)
VH: QVQLVESGGGVVQPGRSLRLSCAASGFTFSNHAMAWVRQAPGKGLEWVAVISYDGSNKYYRDSVKGRFTISRDNAQNTLYLQMNSLRAEDTAVYYCTTGLNSGYDWGQGTLVTVSS
VL: DIQMTQSPSSLSASVGDRVTITCRASQNVSSFLNWYQQKPGEAPRRLIYGTNSLQSGVPSRFSGSGSGTDYTLTISSLQPEDFATYYCQQYNSWPWTFGQGTKLEIK
notes: detected with anti-human IgG (Fc specific); also called anti-CD25 antibody G09
B2: binds.

B3: H07 (antibody, V domains shown)
VH: QVQLVESGGGVVQPGRSLRLSCAASGFTFSNHAMAWVRQAPGKGLEWVAVISYDGSNKYYADSVKGRFTISRDNAKNTLYLQMNSLRAEDTAVYYCTTGWNSGYDWGQGTLVTVSS
VL: DIQMTQSPSSLSASVGDRVTITCRASQSVNSFLNWYQQKPGKAPRRLIYGTSSLQSGVPSRFSGSGSGTDYTLTISSLQPEDFATYYCQQYTSWPWTFGQGTKLEIK
notes: It was detected with anti-human IgG (Fc specific), and a human IgG1 isotype served as control; also called anti-CD25 antibody H07
B3: binds.

B4: H02 (antibody, V domains shown)
VH: QVQLVESGGGVVQPGRSLRLSCAASGFTFSNHAMAWVRQAPGKGLEWVAVISYDGSNKYYRDSVKGRFTISRDNSQSTLYLQMNSLRAEDTAVYYCTTGLNSGYDWGQGTLVTVSS
VL: DIQMTQSPSSLSASVGDRVTITCRASQNVSSFLNWYQQKPGEAPRRLIYGTNSLQSGVPSRFSGSGSGTDYTLTISSLQPEDFATYYCQQYNSWPWTFGQGTKLEIK
notes: detected with anti-human IgG (Fc specific); also called anti-CD25 antibody H02
B4: binds.

B5: H01 (antibody, V domains shown)
VH: QVQLVESGGGVVQPGRSLRLSCAASGFTFSNHAMAWVRQAPGKGLEWVAVISYDGSNKYYADSVKGRFTISRDNSQNTLYLQMNSLRAEDTAVYYCTTGLNSGYDWGQGTLVTVSS
VL: DIQMTQSPSSLSASVGDRVTITCRASQNVSSFLNWYQQKPGKAPRRLIYGTSSLQSGVPSRFSGSGSGTDYTLTISSLQPEDFATYYCQQYTSWPWTFGQGTKLEIK
notes: detected with anti-human IgG (Fc specific); also called anti-CD25 antibody H01
B5: binds.

B6: H08 (antibody, V domains shown)
VH: QVQLVESGGGVVQPGRSLRLSCAASGFTFSNHAMAWVRQAPGKGLEWVAVISYDGSNKYYADSVKGRFTISRDNSKNTLYLQMNSLRAEDTAVYYCTTGLNSGYDWGQGTLVTVSS
VL: DIQMTQSPSSLSASVGDRVTITCRASQSVSSYLNWYQQKPGKAPRRLIYGTNSLQSGVPSRFSGSGSGTDYTLTISSLQPEDFATYYCQQYTSWPWTFGQGTKLEIK
notes: detected with anti-human IgG (Fc specific); also called anti-CD25 antibody H08
B6: binds.
